Among the data in patent US20160146830A1 (published 2016) are Kd values, retold here.

This assay deals with Tetanus toxoid (TT) (UniProt P04958 2-1315). In words: competitive ELISA, IgG equilibrated with soluble TT, TT-coated plate. In general terms: An ELISA detects its analyte on a solid surface through an enzyme-linked reagent.
Sequence of Tetanus toxoid (TT) (P04958 2-457 limits assumed, chain 1 of 2): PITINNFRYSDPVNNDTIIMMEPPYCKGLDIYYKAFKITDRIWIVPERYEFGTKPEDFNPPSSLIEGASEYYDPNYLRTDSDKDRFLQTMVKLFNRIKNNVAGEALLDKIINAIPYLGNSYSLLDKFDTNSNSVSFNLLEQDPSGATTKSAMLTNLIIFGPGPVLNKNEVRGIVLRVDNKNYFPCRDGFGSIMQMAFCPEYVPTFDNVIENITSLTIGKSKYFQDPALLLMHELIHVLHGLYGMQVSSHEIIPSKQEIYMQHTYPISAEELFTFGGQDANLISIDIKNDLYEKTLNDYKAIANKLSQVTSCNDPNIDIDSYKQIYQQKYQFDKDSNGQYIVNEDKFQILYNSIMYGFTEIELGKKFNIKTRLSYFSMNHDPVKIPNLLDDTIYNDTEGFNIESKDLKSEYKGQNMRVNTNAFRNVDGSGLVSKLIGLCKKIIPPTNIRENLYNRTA
Sequence of Tetanus toxoid (TT) (P04958 458-1315 limits assumed, chain 2 of 2): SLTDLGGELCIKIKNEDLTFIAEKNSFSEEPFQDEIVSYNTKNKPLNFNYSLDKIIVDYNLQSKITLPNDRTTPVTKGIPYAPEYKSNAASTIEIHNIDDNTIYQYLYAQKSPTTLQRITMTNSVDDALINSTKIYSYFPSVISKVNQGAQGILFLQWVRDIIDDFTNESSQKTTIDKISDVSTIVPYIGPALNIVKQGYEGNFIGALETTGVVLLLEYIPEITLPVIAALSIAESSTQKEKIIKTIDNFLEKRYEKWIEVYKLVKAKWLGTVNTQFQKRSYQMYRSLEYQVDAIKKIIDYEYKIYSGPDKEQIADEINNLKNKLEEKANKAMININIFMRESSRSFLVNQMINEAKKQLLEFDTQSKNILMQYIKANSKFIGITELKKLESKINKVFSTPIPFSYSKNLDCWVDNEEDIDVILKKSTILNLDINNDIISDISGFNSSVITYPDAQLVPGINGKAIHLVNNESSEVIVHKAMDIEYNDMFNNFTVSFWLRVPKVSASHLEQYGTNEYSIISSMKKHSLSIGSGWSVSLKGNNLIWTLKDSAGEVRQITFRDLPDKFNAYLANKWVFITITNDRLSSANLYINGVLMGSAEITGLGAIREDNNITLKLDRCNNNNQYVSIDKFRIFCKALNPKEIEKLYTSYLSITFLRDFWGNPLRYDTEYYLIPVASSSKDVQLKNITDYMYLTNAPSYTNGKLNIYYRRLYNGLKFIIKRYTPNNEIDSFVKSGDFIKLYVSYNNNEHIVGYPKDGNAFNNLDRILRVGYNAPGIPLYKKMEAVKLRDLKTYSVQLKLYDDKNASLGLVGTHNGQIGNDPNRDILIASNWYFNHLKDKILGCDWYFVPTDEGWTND

B1: TT-3 (antibody, V domains shown)
VH: QVQLVQSGAEVKKPGASVRVSCKASGYTFTRYAMHWVRQAPGQRPEWMGWINVDNGNTEYSQKFQGRLTITRDTSASTAYMELSSLTSDDTAVYYCAKDRVRVVQAATTLDFWGQGTLVTVSS
VL: EIVLTQSPGTLSLSPGERATLSCRASQTIPSKYLGWYQQKLGQAPRLLIYGASSRATGIPDRFSGSGSGTDFTLTISRLEPEDFAVYYCQQYGSLSAITFGQGTRLEIK
notes: also called VH-3/VL-3
A word on the Kd: it is the constant that tells how readily two partners part at equilibrium. Lower therefore signals tighter binding. For B1, binding was characterised by a dissociation constant (Kd) of 3.7 nM.

B2: TT-9 (antibody, V domains shown)
VH: QVQLQESGPGLVKPSGTLSLTCAVSGVPVYTGHWWTWVRQAPGKGLEWIGEIHHTVTTNYNPSLRSRVTISEDRSKNQISLTLQSVTAADTAVYFCARGEDCVGGSCYSADWGQGILVTVSS
VL: EIVLTQSPSSLSASVGDRVTITCRASQNIHLFLNWYQQRPGRVPKVLIYATSTLQSGVPSRFSGSGSGTDFTLTISSVQPEDFATYYCQQSFSTPRTFGPGTKVEIK
notes: also called VH-10/VL-10
Molecule B2 registered a Kd of 0.1 nM. This Kd lies about 37-fold lower than the previous one.

B3: TT-8 (antibody, V domains shown)
VH: QVQLVESGGGLVKPGGSLRLSCAASGFSFSHYSMNWIRQAPGKGLEWVASITSGSTNMVYADSLRARFSISRDNAKNSLYLQMDSLSAEDTAVYYCARKGMGHYFDFWGQGTPVTVSS
VL: QTVVTQEPSSSVSLGGTVTLTCGLTSGPVTGAYYPSWHQQTPGQAPRTLIYNTYSLSSGVSDRFSGSILGNKAALTISGAQADDESDYYCVLYMGSGIWMFGGGTKLTVL
notes: also called VH-9/VL-9
B3 returned a Kd of 2.8 nM.

B4: TT-2 (antibody, V domains shown)
VH: QVQLVQSGGGVKQPGGSLRLSCTASGFTFEDFNMHWVRQAPGKGLEWISYISGDGDRTHYSDSVRGRFTISRDNSGNSLYLQMTSLRTEDAGFYYCGKSYDYIRENLDSWGQGTLVTVSS
VL: QPGLTQPPSVSVAPGQTARITCGGNNIGSRHVHWYQQRPGQAPVLVVYDDDARPSGISGRFSGSNSGNTATLTISWVEAGDEADYYCQVSDSGREWGVFGSGTKVTVL
notes: also called VH-2/VL-2
As to B4, the Kd stood at 22.6 nM. This Kd is about 8.1-fold higher than that of the molecule before.

B5: TT-11 (antibody, V domains shown)
VH: QVQLVESGAEVKKPGASVRVSCKASGYTFTNYGLAWVRQAPGQGLEWMGWITVYNGHTSYAQKFHDRVTMTTDTSTRTAYLEVRNLGSDDTAVYYCARKPRFYYDTSAWFEFWGQGTLVTVSS
VL: DIVLTQSPETLSVSPGESATLSCRASQSVSTDLAWYQHKPGQAPRLLIWGASTRATGIPARFSGSGSGTEFTLTISSLQSEDFAICFCHQYNNWPTFGQGTKVEIK
notes: also called VH-13/VL-13
In turn, B5 had a Kd of 1.6 nM.

B6: TT-7 (antibody, V domains shown)
VH: QVQLQESGPGLVRPSQTLSLTCTVSGDSISDGDSFWSWIRQPPGKGPEWIGYISSSGTTYYYPSLRGRLTVSLDASKNQFSLSLTSVTAADTAVYYCARARNYGFPHFFDFWGRGTLVTVSS
VL: DIQMTQSPSTLSASVGDSVTITCRASQSITRWLAWYQQKPGKAPKLLIYKASLLESGVPSRFSGSGSGTEFTLTISSLQPDDFATYYCQQYNSYSPWTFGPGTKLEIK
notes: also called VH-8/VL-8
Regarding B6, binding was put at a Kd of 0.5 nM.

B7: TT-1 (antibody, V domains shown)
VH: QVQLVESGGGLVQPGRSLRLSCVGSGFSFESYAMHWVRLAPGKGLEWVAGISWDSGAKGNADSVEGRFTISRDNAKKSVYLEMRSLRPEDTAFYYCAKAPIIGPKYYFYMDVWGKGTSVTVSS
VL: EIVLTQSPGTLSLSPGERATLSCRASQRVKSSYLAWYQQKPGQAPRLLIYDASTRATGIPDRFSGSGSGTDFTLTISRLEPEDVAVYYCQQYGTSRGTFGQGTRLEIK
notes: also called VH-1/VL-1
As to B7, the Kd turned out to be 1.6 nM.

B8: TT-10 (antibody, V domains shown)
VH: QVQLQESGGGLVQPGRSLRLSCVGSGFSFESYAMHWVRQAPGKGLEWVAGISWDSGAKGNADSVEGRFTISRDNAKKSLYLEMRSLRPEDTAFYYCAKAPIIGPKHYFYMDVWGKGTSVTVSS
VL: EIVLTQSPGTLSLSPGERATLSCRASQRVKSSYLAWYQQKPGQAPRLLIYDASTRATGIPDRFSGSGSGTDFTLTISRLEPEDVAVYYCQQYGTSRGTFGQGTRLEIK
notes: also called VH-11/VL-11
Molecule B8 gave a Kd of 0.9 nM.

B9: TT-4 (antibody, V domains shown)
VH: QVTLKESGPALVKPTQTLTLTCTFSGFSLLSSGMCVSWIRQPPGKALEWLARIDWDEKKYYSPSLKTRLTISKDTSKDQVVLTMTNMDPLDTAMYSCARGVVPAGIPFDFWGQGIMVTVSS
VL: ETTLTQSPSTLPASVGDRVTITCRASENINSWLAWYQQKPGKAPKILIYRASNLESGVPSRFSGSGSGTEFTLTISSLQPDDFATYYCQHFDKYFSWTFGHGTKVEIK
notes: also called VH-4/VL-4
With B9, the Kd stood at 3.2 nM.

B10: TT-6 (antibody, V domains shown)
VH: QVQLVESGSEVRKPGASVKVSCKASGYTFSRYGLTWVRQAPGQGLEWMGWISGYNSNTNYAPKFQGRVTMTTDTSTNTAYLELRSLRSNDTAVYYCARDYFHSGSQYFFDYWGQGSLVTVSS
VL: DIRLTQSPSSLSASVGDRVTITCRSSQTISTYLNWYQQKPGEAPKILIYAASSLHTGVPSRFSGSGSGTDFTLTITSLQPEDFAIYHCQQSYSTPYTFGQGTKVEIK
notes: also called VH-7/VL-7
The molecule B10 registered a Kd of 0.6 nM.

B11: TT-5 (antibody, V domains shown)
VH: QVQLQESGPGLVKPSETLSLTCTVSGGSINSYYWSWIRQSPGKGLEWIGYIYYTGINKYNPSLKSRVTISMDTSKRQVSLKVTSLTPADTAVYFCARLHPTCASTRCPENYGMDVWGQGTTVAVSS
VL: DIRLTQSPSSLSASVGDRVTITCRSSQTISTYLNWYQQKPGEAPKILIYAASSLHTGVPSRFSGSGSGTDFTLTITSLQPEDFAIYHCQQSYSTPYTFGQGTKVEIK
notes: also called VH-5/VL-5
Molecule B11 displayed a Kd of 18.1 nM.
